± gives the uncertainty stated by the source.

The data set in a line: amyloid nucleation score (Sup35N fusion, yeast selection) (log enrichment); library NNK3; higher = more nucleation; inactive = no reads after selection. The method, boiled down:
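Sup35N fusions to peptides of 20 random codons were expressed in psi-negative yeast, induced 24 hours with 100 μM copper sulfate, and grown 7 days at 30°C on medium lacking adenine and uracil. Input and output plasmid inserts were sequenced by Illumina. The nucleation score is the DiMSum log enrichment of output over input reads, centred on the mode score of non-aggregating sequences. Sequences with under 100 input reads were excluded.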
As for WLFMIARTYR, the amyloid nucleation score result was “inactive”.
The result for WLFRGVVRNRRALARGIRAG reads “inactive”; that for WLHSGYGSNLPKATMRYCPN, “inactive”; that for WLIFYVYIVGDPAWLLVFMS, “inactive”.
On to WLLEKYKLCMGWFFYSDFLT, for which the amyloid nucleation score result was “inactive”.
The result for WLNKWTHGVIANFYVVSGHP reads 1.64 ± 0.075; that for WLSYKSH, 0.392 ± 0.54; that for WLVKGPVCKGSAS, -0.116 ± 1.1.
As to WLVYPC, the amyloid nucleation score entry was “inactive”.
With WMVYDSLILFHDVRRSYLPM, the amyloid nucleation score result was “inactive”.
To WNGILHMMVGGLKTLIGMDY belongs “inactive”.
To WNLFDHRIGNKQRNGYDVYE belongs “inactive”.
The result for WNLHLLICEKSHTMEVMLLR reads “inactive”; that for WNVPGVHCCIWVTRWEMGPT, 2.72 ± 0.078; that for WNVWVLPIFIAFGLEPPRLE, 2.62 ± 0.059.
Take WNYHFPSS: the amyloid nucleation score came to 0.339 ± 0.37.
For the substance WPAVEKSLRRECFIVLRPFG, the amyloid nucleation score result is “inactive”.
To WPGNWSQFNQCWCRETTCYV belongs “inactive”; to WPIATTMSKGVCVRRVRGRD, -0.411 ± 0.69.
Take WPLTCCDFSPSDSAIGRM: the amyloid nucleation score entry was “inactive”.
As for WPSLYHQMYGVYLGLLVILK, the amyloid nucleation score result is “inactive”.
To WQCNCGASICASHKKCANMN belongs 0.128 ± 0.3; to WRDRNF, 1.3 ± 0.15; to WRHDMSIFQAQLSTLVGI, “inactive”.
To WRLEL belongs “inactive”; to WRSMAFPVVK, 0.988 ± 0.13.
Take WRTSMVASILRVRWEYLKWK: the amyloid nucleation score result is “inactive”.
The result for WSCESNDVHSCWWWLGGFNT reads “inactive”; that for WSLMCRVAYRYGRVRNSKSG, “inactive”; that for WSLPSRLIRDVGSSWIYFCL, “inactive”.
The result for WTGFFCNAVKTTTGFNALFL reads “inactive”; that for WTKECISIGRTWIYRRVGRG, 0 ± 0.59.
The result for WTLRFLVKGSRCQFVAP reads “inactive”; that for WVCPCKSGMSQNWRFYNPSR, “inactive”; that for WVDFFMFWGFAMNENKWFVH, “inactive”.
WVDFTTWLKFVFRSSIHYLL had an amyloid nucleation score of 0.012 ± 0.68.
To WVESESQETHHIAM belongs -0.113 ± 1; to WVKNLVFEGHVGA, “inactive”; to WVLDSERQMANSLWSGGGLA, “inactive”.
The result for WVMCFVAWCSAFLRTNFIDM reads “inactive”; that for WVQVCCVNTNGRSFQLEGSI, 1.36 ± 0.097.
To WVRSFMSLCFW belongs 0.974 ± 0.089; to WVVPSWCHSFPLMIIKRTCC, “inactive”.
For WWAISTLGMGNQLFLGVPRY, the amyloid nucleation score result was “inactive”.
The result for WWDTLIAGSLPKLTWNQKTG reads “inactive”; that for WWTLKPGESVVRGLRVCGAP, “inactive”.
The result for WYGLA reads “inactive”; that for WYIFFMEVMAGRY, “inactive”.
To WYLSYSTIAFHYWEFYGYAD belongs “inactive”.
As for WYNDVMEVESLISYVDFFRE, the amyloid nucleation score result is “inactive”.
WYVYTNIRNVSYDIFDNKKF displayed an amyloid nucleation score of 1.49 ± 0.11.
Substance WYWSLA displayed an amyloid nucleation score of -0.174 ± 0.59.
To YACRMKEFYGCILSRVRVWL belongs “inactive”; to YAFISWNS, “inactive”; to YAFLTYFSKVIDSVF, 1.33 ± 0.076.
To YAGSCK belongs “inactive”.
To YANDANSCDWCICAFDRRSC belongs “inactive”.
For YANFVRYNRLVKDRAVRSPK, the amyloid nucleation score entry was “inactive”.
For YARHSLDMRTSRDLTTLLGL, the amyloid nucleation score entry is “inactive”.
To YASVRVGMPSCDECGMFCLE belongs “inactive”; to YAVLNELVTRSCLYAVSFTI, “inactive”.
Turning to YAYEIRRLT, the amyloid nucleation score result was “inactive”.
To YCIVLKYNQLLSTMSANNMY belongs 1.19 ± 0.1; to YCLFASMKDDAQGTQNCDRS, “inactive”.
The result for YCPRLRVRVCWFGTSSLDFQ reads 0.862 ± 0.16.
Turning to YCSIMYVCNKILFNAAKARL, the amyloid nucleation score result is “inactive”.
To YCTYN belongs “inactive”; to YCVMNSAINSLRSMAIWSFA, “inactive”.
The result for YCVSGMVMCCH reads “inactive”; that for YDCMSRVLAMARATMCRLGD, “inactive”.
YDKVFLPLGWHWPERPMGQT: the amyloid nucleation score result was “inactive”.
To YDLTFVGWMDYCNLPMVRLI belongs “inactive”.
To YDNLTARESSYFIFFCFLVY belongs “inactive”; to YDNVDNYTTEISVNGCLMMN, “inactive”.
To YDSRWLDGSACKNKVQFGCQ belongs “inactive”.
For the substance YDSVNLSLVLHSKRHYAYCA, the amyloid nucleation score entry is “inactive”.
The result for YDSYTGRHNKLILRM reads “inactive”.
To YDTHWTVCLLSTCLTL belongs “inactive”; to YDYTRCLLYFVALRYQGGNS, “inactive”.
To YEARSWE belongs “inactive”; to YETVMFSS, “inactive”.
Take YEVPFSNASWRDGQMRCRCS: the amyloid nucleation score result was “inactive”.
Consider YEVSTRRRVM, for which the amyloid nucleation score entry is “inactive”.
The result for YFANTVRTFLVLLQAFVLVV reads “inactive”.
To YFCSCFRFSLNN belongs 2.8 ± 0.062; to YFDSWTSMSAYYMGSFHW, “inactive”.
For YFEVSLIRLYHEKTTTRMVY, the amyloid nucleation score result is “inactive”.
The result for YFFIPLMF reads 0.725 ± 0.14; that for YFGLALKSFGTLM, 0.876 ± 0.19.
To YFISRCIWLVKSYREIELRW belongs “inactive”; to YFKNGNALCKAFKKRISRKD, “inactive”.
To YFLKDKPVNRMIQ belongs 1.75 ± 0.083.
With YFLNSQVSNLLGS, the amyloid nucleation score entry was “inactive”.
The result for YFQTIVFRGTSGYCIVNQQV reads 1.97 ± 0.1.
The result for YFRAFMFETS reads “inactive”.
For YFRANVRLKLEVMQRKKSPS, the amyloid nucleation score is 2.28 ± 0.075.
Turning to YFSLWVLSYFLEAPLSLRNN, the amyloid nucleation score result is “inactive”.
Regarding YGGNSIY, the amyloid nucleation score entry is “inactive”.
Turning to YGMGSGTTMVCPKVAWG, the amyloid nucleation score entry is “inactive”.
The result for YGRDQSRYYLYSSMGEV reads 0.148 ± 0.72; that for YGSDGHHLA, “inactive”.
As for YGSRW, the amyloid nucleation score entry is “inactive”.
To YGVSMVVENYL belongs “inactive”; to YHLDFMMGINSFRRVKAEPG, “inactive”.
With YHTARFGIKFLLRM, the amyloid nucleation score result is “inactive”.
To YHTAWWAEMCIDIKNGEL belongs “inactive”; to YHTPCSTSDVARRGRYSRRD, “inactive”; to YIAFCSRDSFRLVMRHNSGI, “inactive”.
For YIAVG, the amyloid nucleation score is -0.483 ± 0.75.
To YIEYIWWRLSSWLRSMKGLR belongs “inactive”; to YIFRIHGPLPILHTRYPIRR, “inactive”; to YIIICLGMWCYSNVGSKTGT, “inactive”.
To YILRFSWFIYLIRQWSNSGP belongs “inactive”; to YIMDLKITANVLTYVACARR, 1.4 ± 0.097.
Regarding YIQITQMAALARLYIYMRMC, the amyloid nucleation score result is “inactive”.
To YIRLGWNVSWMLSSSEYVSH belongs 0.853 ± 0.12; to YIRVNTILDLD, “inactive”.
The result for YIRVVNAPVCTGNCLQDAYL reads “inactive”.
With YISLDVTSIVGFVENIKQCV, the amyloid nucleation score worked out at 1.65 ± 0.068.
In the case of YISSVQGCPMEGGLPKSSAS, the amyloid nucleation score result is “inactive”.
The result for YIVWCHVVWLADCR reads “inactive”; that for YIYLTQGTARNIDYT, 0.047 ± 0.43.
To YIYNSLLYI belongs “inactive”; to YIYTFYSVSY, 0.201 ± 0.17; to YIYWQRTTSRVLERSVILNV, “inactive”.
As to YKHFYSFFCISFS, the amyloid nucleation score worked out at 1.88 ± 0.08.
For YKNIFSWSPNSWTYKCSVNN, the amyloid nucleation score entry is “inactive”.
For the substance YKNKTSNMLICNAF, the amyloid nucleation score entry is “inactive”.
The result for YKNSGFNLFNRVGNWMGVKL reads “inactive”; that for YKSDSLLRSSLLTELTPIHF, “inactive”.
To YKTRTKKVS belongs “inactive”; to YKYLLFAFLETLGQWYLYVE, “inactive”.
